Residue numbers refer to the chain shown, from its start. Where two headings read alike, the source gives them in different places.
Legend:
[1] = target: T1, ZCCHC8 core (NEXT subunit);RBM7 core (NEXT subunit);MTR4 (human;human;human, UniProt Q6NZY4;Q9Y580;P42285 1-415+508-707;6-86;1-1042, internal_change||); assay: cryo-EM
[2] = target: T1, ZCCHC8 core (NEXT subunit);RBM7 core …; assay: cryo-EM; remark: listed apart in the source
[3] = target: T2, ZCCHC8 core (NEXT subunit);RBM7 core FAFA;MTR4 (human;human;human, UniProt Q6NZY4;Q9Y580;P42285 1-415+508-707;6-86;1-1042, internal_change|F13A;F52A|); assay: EMSA
[4] = target: T1, ZCCHC8 core (NEXT subunit);RBM7 core …; assay: EMSA
[5] = target: ZCCHC8 core delta HD;RBM7 core (NEXT subunit);MTR4 (human;human;human, UniProt Q6NZY4;Q9Y580;P42285 176-415+508-707;6-86;1-1042, internal_change||); assay: EMSA
[6] = target: T1, ZCCHC8 core (NEXT subunit);RBM7 core …; assay: EMSA; remark: listed apart in the source
[7] = target: T2, ZCCHC8 core (NEXT subunit);RBM7 core …; assay: EMSA; remark: listed apart in the source
[8] = target: ZCCHC8 core delta ZK;RBM7 core (NEXT subunit);MTR4 (human;human;human, UniProt Q6NZY4;Q9Y580;P42285 1-226+245-415+508-707;6-86;1-1042, internal_change||); assay: EMSA

B1: cryo-EM substrate 1 (structured_RNA)
RNA: ACAUGAGGAUCACCCAUGUAAUCUCUUUCAAAAAAUACAAAAAAAA
modifications: 2'-pyrene modified U at position 36
**Q.** Does B1 bind [1]?
**A.** Result: binds

B2: cryo-EM substrate 2 (dsRNA)
RNA 1: GGCGCGCGCCAAAAAUUUUUAAAAAAAAAA
RNA 2: B2 RNA 1
**Q.** Does B2 bind [2]?
**A.** Result: binds

B3: 3' A5U5A10-tailed RNA duplex (dsRNA)
RNA 1: AGUGCGCUGUAUCUUCAAGGCCACU
RNA 2: AGUGGCCUUGAAGAUACAGCGCACUAAAAAUUUUUAAAAAAAAAA
**Q.** For B3, which binding signal [3] is on record?
**A.** The binding signal was roughly 3 fold weaker than NEXT.

**Q.** And the Kd [4]?
**A.** The Kd was 42 nM.

**Q.** What about the binding signal [5] of the same binder?
**A.** Its binding signal is roughly 2 fold weaker than NEXT.

B4: 3' A20-tailed RNA duplex (dsRNA)
RNA 1: AGUGCGCUGUAUCUUCAAGGCCACU
RNA 2: B3 RNA 2 with U31A, U32A, U33A, U34A, U35A
**Q.** For B4, which binding signal [6] is on record?
**A.** Its binding signal is ~10 fold weaker than NEXT on A5U5A10 tail.

**Q.** And the binding signal [7]?
**A.** Its binding signal is ~2 fold weaker than NEXT on A20 tail.

**Q.** What about the binding signal [8] of the same binder?
**A.** Its binding signal is ~4 fold tighter than NEXT on A20 tail.
